Assay results reported in patent US20050158298A1.

Assays:
[1] = molecular target: gliadin 33mer …; assay: cell-based or functional assay
[2] = tested on: gliadin 33mer LQLQPFPQPQLPYPQPQLPYPQPQLPYPQPQPF
[3] = molecular target: T1, gliadin 33mer LQLQPFPQPQLPYPQPQLPYPQPQLPYPQPQPF
T1 chain: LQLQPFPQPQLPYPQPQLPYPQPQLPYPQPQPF

[4] = molecular target: T2, gliadin 14mer PQPQLPYPQPQLPY
T2 chain: PQPQLPYPQPQLPY

Molecule: Pronase
- digestion of the peptide over 20 h, E/S=1/25 [1]: < 40%

Molecule: Chymotrypsin
- digestion of the peptide [2]: Chymotrypsin alone or supplemented with ruLAP or DPPIV is not able to breakdown the peptide

B1: cytosolic leucine aminopeptidase from porcine kidney (Sigma) (protein)
chain: TKGLVLGIYSKEKEDDAPQFTSAGENFDKLVSGKLREILNISGPPLKAGKTRTFYGLHEDFSSVVVVGLGKKGAGVDDQENWHEGKENIRAAVAAGCRQIQDLEIPSVEVDPCGDAQAAAEGAVLGLYEYDELKQKKKVVVSAKLHGSGDQEAWQRGVLFASGQNLARHLMETPANEMTPTRFAEVIEKNLKSASSKTDVHIRPKSWIEEQEMGSFLSVAKGSEEPPVFLEIHYKGSPDASDPPLVFVGKGITFDSGGISIKASANMDLMRADMGGAATICSTIVSAAKLDLPINLVGLAPLCENMPSGKANKPGDVVRAKNGKTIQVDNTDAEGRLILADALCYAHTFNPKVIINAATLTGAMDIALGSGATGVFTNSSWLWNKLFEASIETGDRVWRMPLFEHYTKQIVDCQLADVNNIGKYRSAGACTAAAFLKEFVTHPKWAHLDIAGVMTNKDEVPYLRKGMAGRPTRTLIEFLLRFSQDSA
- digestion of the peptide, RP-HPLC [3]: totally inactive towards the 33mer

B2: microsomal leucine aminopeptidase from porcine kidney (Sigma) (protein)
chain: KPWNRYRLPTTLLPDSYNVTLRPYLTPNADGLYIFKGKSIVRLLCQEPTDVIIIHSKKLNYTTQGHMVVLRGVGDSQVPEIDRTELVELTEYLVVHLKGSLQPGHMYEMESEFQGELADDLAGFYRSEYMEGNVKKVLATTQMQSTDARKSFPCFDEPAMKATFNITLIHPNNLTALSNMPPKGSSTPLAEDPNWSVTEFETTPVMSTYLLAYIVSEFQSVNETAQNGVLIRIWARPNAIAEGHGMYALNVTGPILNFFANHYNTSYPLPKSDQIALPDFNAGAMENWGLVTYRENALLFDPQSSSISNKERVVTVIAHELAHQWFGNLVTLAWWNDLWLNEGFASYVEYLGADHAEPTWNLKDLIVPGDVYRVMAVDALASSHPLTTPAEEVNTPAQISEMFDSISYSKGASVIRMLSNFLTEDLFKEGLASYLHAFAYQNTTYLDLWEHLQKAVDAQTSIRLPDTVRAIMDRWTLQMGFPVITVDTKTGNISQKHFLLDSESNVTRSSAFDYLWIVPISSIKNGVMQDHYWLRDVSQAQNDLFKTASDDWVLLNVNVTGYFQVNYDEDNWRMIQHQLQTNLSVIPVINRAQVIYDSFNLATAHMVPVTLALDNTLFLNGEKEYMPWQAALSSLSYFSLMFDRSEVYGPMKKYLRKQVEPLFQHFETLTKNWTERPENLMDQYSEINAISTACSNGLPQCENLAKTLFDQWMSDPENNPIHPNLRSTIYCNAIAQGGQDQWDFAWGQLQQAQLVNEADKLRSALACSNEVWLLNRYLGYTLNPDLIRKQDATSTINSIASNVIGQPLAWDFVQSNWKKLFQDYGGGSFSFSNLIQGVTRRFSSEFELQQLEQFKKNNMDVGFGSGTRALEQALEKTKANIKWVKENKEVVLNWFIEHS
- digestion of the peptide, RP-HPLC and ESI-MS [3]: results only in a partial deletion of N-terminal Leu and C-terminal Phe (due to a carboxypeptidasic contaminant)

B3: recombinant ruLAP2 produced in P. pastoris (protein)
chain: RLVGQEPFGWPFKPMVTQDDLQNKIKLKDIMAGVEKLQSFSDAHPEKNRVFGGNGHKDTVEWIYNEIKATGYYDVKKQEQVHLWSHAEAALNANGKDLKASAMSYSPPASKIMAELVVAKNNGCNATDYPANTQGKIVLVERGVCSFGEKSAQAGDAKAAGAIVYNNVPGSLAGTLGGLDKRHVPTAGLSQEDGKNLATLVASGKIDVTMNVISLFENRTTWNVIAETKGGDHNNVIMLGAHSDSVDAGPGINDNGSGSIGIMTVAKALTNFKLNNAVRFAWWTAEEFGLLGSTFYVNSLDDRELHKVKLYLNFDMIGSPNFANQIYDGDGSAYNMTGPAGSAEIEYLFEKFFDDQGIPHQPTAFTGRSDYSAFIKRNVPAGGLFTGAEVVKTPEQVKLFGGEAGVAYDKNYHRKGDTVANINKGAIFLNTRAIAYAIAEYARSLKGFPTRPKTGKRDVNPQYSKMPGGGCGHHTVFM
- degradation of the peptide within 4 h, RP-HPLC [3]: partial degradation (less than 50%) of the peptide within 4 h
- digestion of the peptide, 37 C, 4 h, RP-HPLC and ESI-MS [4]: the 14mer is not digested with ruLAP2 within 4 h
- removal of the N-terminal residue; mass loss by ESI-MS (Ala-proNPY): the N-terminal alanine was almost totally removed (molecular mass loss of 71 amu) from proNPY
- removal of N-terminal residues; mass loss by ESI-MS (Gly-Ser-proNPY): cleavage of the two N-terminal residues Gly-Ser with a theoretical loss of 144.1 amu (found 144.2)
